This is an account of results in patent publication US20140227287A1.

The target in this experiment is human βNGF (R&D Systems, Inc.) (human) (UniProt P01138). As to the kind of experiment: dynamic light scattering of antibody incubated with human βNGF.
Chain of human βNGF (R&D Systems, Inc.) (human) (P01138 122-241 limits assumed): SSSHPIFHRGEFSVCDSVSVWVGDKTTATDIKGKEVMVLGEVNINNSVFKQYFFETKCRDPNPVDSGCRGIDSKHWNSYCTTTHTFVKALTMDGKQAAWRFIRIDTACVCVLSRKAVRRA

On to Control IgG (antibody), for which the Particle size Average (d · nm), IgG + rhNGF came out at 12.6 nm·days and the Particle size Peak (d · nm), IgG + rhNGF amounted to 11.7 nm·days.
